By stoichiometry N is commonly meant the number of molecules, sites or subunits per partner or assembly.

For this test, the target named is Paracoccus denitrificans FnrP (Paracoccus denitrificans). Briefly: SEC; analytical gel filtration under anaerobic conditions, calibrated Sephacryl S-100HR 16/50, assay buffer (25 mM HEPES, 2.5 mM CaCl2, 100 mM NaCl, 100 mM NaNO3, pH 7.5), 1 ml/min; reconstituted [4Fe–4S] FnrP (~90 % loaded) loaded at ~28 μM [4Fe–4S], in the absence of O2. Background: SEC sorts molecules by how far they enter the pores of the column.

On to “Paracoccus denitrificans FnrP (natural protein)”, for which the stoichiometry N is 2.

The values above are taken from paper PMC4771820.
